For series [1], the target named is T1, cce4228 protein (succinic semialdehyde dehydrogenase, SSADH) (Crocosphaera subtropica, UniProt B1WSJ7).
T1 construct: gene gabD; full ORF in pET-28a, N-terminal 6xHis kept, E. coli BL21(DE3), Ni-NTA; native ca. 109 kDa
T1 sequence (B1WSJ7 1-455): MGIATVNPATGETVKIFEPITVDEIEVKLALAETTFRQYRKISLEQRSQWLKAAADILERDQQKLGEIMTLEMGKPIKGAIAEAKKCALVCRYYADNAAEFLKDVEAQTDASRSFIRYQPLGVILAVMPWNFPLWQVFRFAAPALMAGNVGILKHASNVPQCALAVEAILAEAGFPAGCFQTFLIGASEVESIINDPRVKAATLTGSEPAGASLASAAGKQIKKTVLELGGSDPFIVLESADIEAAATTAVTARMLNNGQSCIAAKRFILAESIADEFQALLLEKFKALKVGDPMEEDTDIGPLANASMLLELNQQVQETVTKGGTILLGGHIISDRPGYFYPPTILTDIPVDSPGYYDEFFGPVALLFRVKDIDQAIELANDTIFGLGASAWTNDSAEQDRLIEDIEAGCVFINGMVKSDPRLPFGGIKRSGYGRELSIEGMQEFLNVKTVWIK
In words: initial velocity at […] nm, excess-substrate inhibition fit. Type of series: biochemical. Particulars: 0.5 mM NADP+, MgCl2, 50 mM CHES pH 9.0, 25°C; table marks wild-type data as from ref. 26; read-out: wild-type^e; cited from earlier work.

The target in series [2] is succinic semialdehyde dehydrogenase cce4228 protein from Cyanothece sp. ATCC51142 (wild-type, recombinant) (Cyanothece sp. ATCC51142). In words: SEC; size exclusion chromatography of purified recombinant cce4228 with standard protein ladders; native mass compared with the subunit mass. On the technique in general: Size exclusion chromatography separates by hydrodynamic size, large species first.

The target of series [3] is T1, cce4228 protein (succinic semialdehyde dehydrogenase, SSADH). In words: initial velocity at […] nm. Format: biochemical. Particulars: MgCl2, 50 mM CHES pH 9.0, 25°C, table marks wild-type data as from ref. 26, read-out: wild-type^e, cited from earlier work.
Substrate in series [4]: O=CCCC(=O)O
In words: purified protein. Type of series: biochemical, Crocosphaera subtropica. The following applies: MgCl2, 50 mM CHES pH 9.0, 25°C.

Substrate in series [5]: NC(=O)c1ccc[n+]([C@@H]2O[C@H](COP(=O)(O)OP(=O)(O)OC[C@H]3O[C@@H](n4cnc5c(N)ncnc54)[C@H](O)[C@@H]3O)[C@@H](O)[C@H]2O)c1
Kind of series: purified protein. Type of series: biochemical, Crocosphaera subtropica. Particulars: 0.02 mM SSA, MgCl2, 50 mM CHES pH 9.0, 25°C, varied: cofactor.

Substrate in series [6]: NC(=O)c1ccc[n+]([C@@H]2O[C@H](COP(=O)(O)OP(=O)(O)OC[C@H]3O[C@@H](n4cnc5c(N)ncnc54)[C@H](OP(=O)(O)O)[C@@H]3O)[C@@H](O)[C@H]2O)c1
In words: purified protein. Type of series: biochemical, Crocosphaera subtropica. Particulars: 0.02 mM SSA, MgCl2, 50 mM CHES pH 9.0, 25°C, varied: cofactor.

Consider `O=CCCC(=O)O` [succinic semialdehyde], for which the Km in series [1] is 8 ± 3 µM.

Regarding “succinic semialdehyde dehydrogenase cce4228 protein from Cyanothece sp. ATCC51142 (wild-type, recombinant) (enzyme)”, the stoichiometry N in series [2] came out at 2.

For `NC(=O)c1ccc[n+]([C@@H]2O[C@H](COP(=O)(O)OP(=O)(O)OC[C@H]3O[C@@H](n4cnc5c(N)ncnc54)[C@H](O)[C@@H]3O)[C@@H](O)[C@H]2O)c1` [NAD^+], the Km in series [3] (0.02 mM SSA) was 1700 ± 200 µM.

Regarding `NC(=O)c1ccc[n+]([C@@H]2O[C@H](COP(=O)(O)OP(=O)(O)OC[C@H]3O[C@@H](n4cnc5c(N)ncnc54)[C@H](OP(=O)(O)O)[C@@H]3O)[C@@H](O)[C@H]2O)c1` [NADP^+], the Km in series [3] (0.2 mM SSA) is 34 ± 2 µM.

B1: cce4228 protein (succinic semialdehyde dehydrogenase, SSADH) (Crocosphaera subtropica ATCC 51142; S420A) (protein)
chain: MGIATVNPATGETVKIFEPITVDEIEVKLALAETTFRQYRKISLEQRSQWLKAAADILERDQQKLGEIMTLEMGKPIKGAIAEAKKCALVCRYYADNAAEFLKDVEAQTDASRSFIRYQPLGVILAVMPWNFPLWQVFRFAAPALMAGNVGILKHASNVPQCALAVEAILAEAGFPAGCFQTFLIGASEVESIINDPRVKAATLTGSEPAGASLASAAGKQIKKTVLELGGSDPFIVLESADIEAAATTAVTARMLNNGQSCIAAKRFILAESIADEFQALLLEKFKALKVGDPMEEDTDIGPLANASMLLELNQQVQETVTKGGTILLGGHIISDRPGYFYPPTILTDIPVDSPGYYDEFFGPVALLFRVKDIDQAIELANDTIFGLGASAWTNDSAEQDRLIEDIEAGCVFINGMVKADPRLPFGGIKRSGYGRELSIEGMQEFLNVKTVWIK
notes: full ORF in pET-28a, N-terminal 6xHis kept, E. coli BL21(DE3), Ni-NTA; native ca. 109 kDa
In the case of B1, in the series “purified protein [4]” (NADP+ as cofactor), the Km came to 70 ± 10 µM and the kcat stood at 9.3 ± 0.9 s⁻¹.

B2: cce4228 protein (succinic semialdehyde dehydrogenase, SSADH) (Crocosphaera subtropica ATCC 51142; K154A) (protein)
chain: MGIATVNPATGETVKIFEPITVDEIEVKLALAETTFRQYRKISLEQRSQWLKAAADILERDQQKLGEIMTLEMGKPIKGAIAEAKKCALVCRYYADNAAEFLKDVEAQTDASRSFIRYQPLGVILAVMPWNFPLWQVFRFAAPALMAGNVGILAHASNVPQCALAVEAILAEAGFPAGCFQTFLIGASEVESIINDPRVKAATLTGSEPAGASLASAAGKQIKKTVLELGGSDPFIVLESADIEAAATTAVTARMLNNGQSCIAAKRFILAESIADEFQALLLEKFKALKVGDPMEEDTDIGPLANASMLLELNQQVQETVTKGGTILLGGHIISDRPGYFYPPTILTDIPVDSPGYYDEFFGPVALLFRVKDIDQAIELANDTIFGLGASAWTNDSAEQDRLIEDIEAGCVFINGMVKSDPRLPFGGIKRSGYGRELSIEGMQEFLNVKTVWIK
notes: as for B1
As to B2, the Km in the series “purified protein [5]” came out at 1500 ± 400 µM. Besides, the Km in “purified protein [6]” worked out at 6100 ± 1500 µM. Further, in “purified protein [4]” (8 mM NADP+), the Km was determined as 20 ± 10 µM, the kcat amounted to 0.1 ± 0.05 s⁻¹ and the kcat/Km was 5000 M⁻¹ s⁻¹.

B3: cce4228 protein (succinic semialdehyde dehydrogenase, SSADH) (Crocosphaera subtropica ATCC 51142; R139A) (protein)
chain: MGIATVNPATGETVKIFEPITVDEIEVKLALAETTFRQYRKISLEQRSQWLKAAADILERDQQKLGEIMTLEMGKPIKGAIAEAKKCALVCRYYADNAAEFLKDVEAQTDASRSFIRYQPLGVILAVMPWNFPLWQVFAFAAPALMAGNVGILKHASNVPQCALAVEAILAEAGFPAGCFQTFLIGASEVESIINDPRVKAATLTGSEPAGASLASAAGKQIKKTVLELGGSDPFIVLESADIEAAATTAVTARMLNNGQSCIAAKRFILAESIADEFQALLLEKFKALKVGDPMEEDTDIGPLANASMLLELNQQVQETVTKGGTILLGGHIISDRPGYFYPPTILTDIPVDSPGYYDEFFGPVALLFRVKDIDQAIELANDTIFGLGASAWTNDSAEQDRLIEDIEAGCVFINGMVKSDPRLPFGGIKRSGYGRELSIEGMQEFLNVKTVWIK
notes: as for B1
Turning to B3, in “purified protein [4]” (NADP+ as cofactor), the Km stood at 112 ± 8 µM and the kcat is 0.54 ± 0.01 s⁻¹.

B4: cce4228 protein (succinic semialdehyde dehydrogenase, SSADH) (Crocosphaera subtropica ATCC 51142; S157E) (protein)
chain: MGIATVNPATGETVKIFEPITVDEIEVKLALAETTFRQYRKISLEQRSQWLKAAADILERDQQKLGEIMTLEMGKPIKGAIAEAKKCALVCRYYADNAAEFLKDVEAQTDASRSFIRYQPLGVILAVMPWNFPLWQVFRFAAPALMAGNVGILKHAENVPQCALAVEAILAEAGFPAGCFQTFLIGASEVESIINDPRVKAATLTGSEPAGASLASAAGKQIKKTVLELGGSDPFIVLESADIEAAATTAVTARMLNNGQSCIAAKRFILAESIADEFQALLLEKFKALKVGDPMEEDTDIGPLANASMLLELNQQVQETVTKGGTILLGGHIISDRPGYFYPPTILTDIPVDSPGYYDEFFGPVALLFRVKDIDQAIELANDTIFGLGASAWTNDSAEQDRLIEDIEAGCVFINGMVKSDPRLPFGGIKRSGYGRELSIEGMQEFLNVKTVWIK
notes: as for B1
For B4, the Km in “purified protein [5]” was 510 ± 40 µM. Moreover, in “purified protein [6]”, the Km came out at 1100 ± 200 µM. For the same molecule, in the series “purified protein [4]” (10 mM NADP+), the Km was 2.8 ± 0.7 µM, the kcat turned out to be 1.5 ± 0.1 s⁻¹ and the kcat/Km was 535000 M⁻¹ s⁻¹.

One may read the stoichiometry N as the number of molecules, sites or subunits per partner or assembly. As a reminder, the kcat is the number of substrate molecules converted per active site and unit of time at saturation. The term kcat/Km denotes the turnover number divided by the Michaelis constant.
